Laboratory results reported in PMC8699515, “Native llama Nanobody Library Panning Performed by Phage and Yeast Display Provides Binders Suitable for C-Reactive Protein Detection” (Biosensors, 2021).

B13: C-reactive protein (CRP) from human pleural fluid (natural protein, UniProt P02741 19-224, looked up)
chain: QTDMSRKAFVFPKESDTSYVSLKAPLTKPLKAFTVCLHFYTELSSTRGYSIFSYATKRQDNEILIFWSKDIGYSFTVGGSEILFEVPEVTVAPVHICTSWESASGIVEFWVDGKPRVRKSLKKGYTVGAEASIILGQEQDSFGGNFEGSQSLVGDIGNVNMWDFVLSPDEINTIYLGGPFSPNVLNWRALKYEVQGEVFTKPQLWP
notes: C-reactive protein, human, purified from pleural fluid; source: bought: LEE Biosolutions (from human pleural fluid)

Tests used:
[1] = target: B13; assay: ELISA; phage screening ELISA: CRP 0.25 ug/well coated overnight at 4 C on MaxiSorp, saturated with 3% BSA-PBS; phages in culture supernatant (100 uL, not normalised) 2 h at room temperature; anti-M13 HRP, TMB, absorbance at 450 nm; ratio of the CRP signal to the BSA control, triplicates; settings: one partner purified
[2] = target: B13; assay: ELISA; CRP (0.5 ug/well) or BSA coated overnight at 4 C; purified nanobodies 0.5 ug/well (A6, A12, B9, H7) or 0.1 ug/well (E12) in 2% BSA in PBS, 2 h at room temperature; anti-His and anti-mouse HRP, TMB; settings: both partners purified
BSA = target: T1, BSA (Bos taurus, UniProt P02769); assay: electrochemical impedance spectroscopy; gold electrode carrying E12-SpyTag held by SpyCatcher; CRP or BSA in solution; room temperature, 0.1 M KNO3 with 5 mM K3[Fe(CN)6]/K4[Fe(CN)6]; triplicate; settings: both partners purified
T1 construct: BSA (serum albumin), used as negative control

[3] = target: B13; assay: ELISA; CRP (0.5 ug/well) or BSA coated 2 h at 37 C; purified nanobodies 0.5 ug/well (A6, A12, B9, H7) or 0.1 ug/well (E12) in 2% BSA in PBS, 2 h at room temperature; anti-His and anti-mouse HRP, TMB; settings: both partners purified
[4] = target: B13; assay: BLI; Octet K2; CRP (25 nM) in PBS immobilised on aminopropylsilane (APS) tips, blocked with 1% BSA/PBS; nanobodies 10-1200 nM in 0.1% BSA/PBS; 30 C; 1:1 model, global fit; settings: both partners purified
[5] = target: T2, E12 fused to mouse Fc (E12-mFc) (llama); assay: ELISA; short protocol (coating 2 h at 37 C) with CRP 1 to 10 ug/mL; 25 ug/mL E12-mFc; anti-mouse HRP, TMB; triplicate; settings: both partners purified
T2 construct: as the VHH of m7

T1 sequence (P02769 25-607): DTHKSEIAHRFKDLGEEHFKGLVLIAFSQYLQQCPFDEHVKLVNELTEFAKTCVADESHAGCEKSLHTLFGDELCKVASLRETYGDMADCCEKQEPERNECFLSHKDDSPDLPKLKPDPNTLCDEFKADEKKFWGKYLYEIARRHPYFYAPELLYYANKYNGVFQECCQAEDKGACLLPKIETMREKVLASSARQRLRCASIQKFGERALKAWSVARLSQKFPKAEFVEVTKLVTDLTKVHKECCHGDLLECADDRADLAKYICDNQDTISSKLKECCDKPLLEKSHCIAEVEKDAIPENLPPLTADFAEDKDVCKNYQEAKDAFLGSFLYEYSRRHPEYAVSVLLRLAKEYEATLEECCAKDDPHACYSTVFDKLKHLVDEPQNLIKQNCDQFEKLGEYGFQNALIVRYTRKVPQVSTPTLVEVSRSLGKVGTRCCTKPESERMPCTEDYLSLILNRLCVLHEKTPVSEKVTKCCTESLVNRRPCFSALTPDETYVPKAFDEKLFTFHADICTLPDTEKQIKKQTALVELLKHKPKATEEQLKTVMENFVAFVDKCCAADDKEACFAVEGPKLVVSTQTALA

B1: anti-CRP nanobody C10 displayed on phage (VHH)
VHH: EVQLQASGGGLVQAGGSLRLSCAASGRTFSNYGMGWFRQAPGKEREFVAAITSGGSTYYRDSVKGRFTISRDNAKNTVYLQMNSLKPDDTAVYYCAASRGVTAIWGSSYDYWGQRTLVTVSS
notes: C10 gave no soluble 6xHis-SpyTag construct; source: E. coli TG1 with M13K07 helper phage, phages in culture supernatant
Screening ELISA (CRP/BSA Signal) [1]: 14.6

B2: anti-CRP nanobody A10 displayed on phage (VHH)
VHH: EVQLQASGGGLVQAGGSLRLSCVASRSILSLAVMGWYRQAPGKERELVASITSGGNTNYADVVKGRFIISRDNAKNTVNLQMNTLRPEDTAVYYCSAKSILTGPNHWRQETQVTVSS
notes: source: E. coli TG1 with M13K07 helper phage, phages in culture supernatant
Screening ELISA (CRP/BSA Signal) [1]: 12.3

B3: anti-CRP nanobody E12 fused to 6xHis-SpyTag (VHH)
VHH: EVQLQASGGGLVQAGGSLRLSCAASRRPSSFKVMGWYRQAPGKQRELVARITSGGSTDYADSVKGRFTISRDNAKNTVYLQMNSLEPEDTAVYYCNAYRWGRDNWGQGTQVTVSS
notes: pET14-derived vector; In the biosensor it was held by SpyCatcher attached to the gold electrode
ELISA signal [2]: 2.84 | binding result (BSA): no binding (tested: 1 μg/mL) | ELISA signal [3]: 2.6 | Kd [4]: 13 nM

B4: anti-CRP nanobody E12 displayed on phage (VHH)
VHH: EVQLQASGGGLVQAGGSLRLSCAASRRPSSFKVMGWYRQAPGKQRELVARITSGGSTDYADSVKGRFTISRDNAKNTVYLQMNSLEPEDTAVYYCNAYRWGRDNWGQGTQVTVSS
notes: as for B2
Screening ELISA (CRP/BSA Signal) [1]: 13.3

B5: anti-CRP nanobody B9 displayed on phage (VHH)
VHH: EVQLQASGGGSVQAGGSLRLSCATSGIIFRNNIMTWYRQAPGKNRELVATITTGGSTNYSDSVKGRFTISRDNTKNTVYLQMSNLKPDDTGVYYCNARRNRFLTGSYGQGTQVTVSS
notes: as for B2
Screening ELISA (CRP/BSA Signal) [1]: 14.6

B6: anti-CRP nanobody B9 fused to 6xHis-SpyTag (VHH)
VHH: EVQLQASGGGSVQAGGSLRLSCATSGIIFRNNIMTWYRQAPGKNRELVATITTGGSTNYSDSVKGRFTISRDNTKNTVYLQMSNLKPDDTGVYYCNARRNRFLTGSYGQGTQVTVSS
notes: pET14-derived vector
ELISA signal [2]: 1.56 | ELISA signal [3]: 2.28

B7: anti-CRP nanobody H7 fused to 6xHis-SpyTag (VHH)
VHH: EVQLQASGGGLVQAGGSLRLSCAASGRTFSSYATGWYRQAPGKERELVAAISSGGSTYYADSVKGRFTISRDNAKNTVYLQMNSLKAEDTAVYYCAGGRRVGVLIGNEYDYWGQGTLVTVSS
notes: pET14-derived vector
ELISA signal [2]: 1.47 | ELISA signal [3]: 0.904 | Kd [4]: 154 nM

B8: anti-CRP nanobody A12 fused to 6xHis-SpyTag (VHH)
VHH: EVQLQASGGGLVQAGGSLGLSCAASTRAFSTYAMGWFRQVPGKEREFVAAISSGGSTVYADSVKGRFTISRDNAKNTVYLQMNNLRPEDTAVYYCAARQGIVVRSPTRMDYWGQGTQVTVSS
notes: pET14-derived vector
ELISA signal [2]: 1.23 | ELISA signal [3]: 0.974 | Kd [4]: 122 nM

B9: anti-CRP nanobody A12 displayed on phage (VHH)
VHH: EVQLQASGGGLVQAGGSLGLSCAASTRAFSTYAMGWFRQVPGKEREFVAAISSGGSTVYADSVKGRFTISRDNAKNTVYLQMNNLRPEDTAVYYCAARQGIVVRSPTRMDYWGQGTQVTVSS
notes: as for B2
Screening ELISA (CRP/BSA Signal) [1]: 15.5

B10: anti-CRP nanobody C1 displayed on phage (VHH)
VHH: DVQLQASGGGLVQPGGSLRLSCRAPRMVFRRNVMGWFRQAPGKQRELVAYITNDGVTKYTDSVKGRFTISRDNAENTMYLQMNNLKTEDTAVYYCNVRRVLGIAGYWGQGTQVTVSS
notes: as for B2
Screening ELISA (CRP/BSA Signal) [1]: 12.5

B11: anti-CRP nanobody A6 displayed on phage (VHH)
VHH: EVQLQASGGGLVRPGGSLRLSCAVSGGTLSNYAVGWFRRAPGNQRELVATFTSGGTTLYADSVKGRFTISRDNLKNTVYLQMNSLKPEDTAVYYCAAKPGRASSQATDYDAWGQGTQVTVSS
notes: as for B2
Screening ELISA (CRP/BSA Signal) [1]: 11.8

B12: anti-CRP nanobody A6 fused to 6xHis-SpyTag (VHH)
VHH: EVQLQASGGGLVRPGGSLRLSCAVSGGTLSNYAVGWFRRAPGNQRELVATFTSGGTTLYADSVKGRFTISRDNLKNTVYLQMNSLKPEDTAVYYCAAKPGRASSQATDYDAWGQGTQVTVSS
notes: pET14-derived vector
ELISA signal [2]: 0.476 | ELISA signal [3]: 0.231 | Kd [4]: 51 nM

B13
binding result [5]: binds
